Assay results from the supplement of paper PMC12764529.
± gives the half width of the 95% confidence interval.

Assays:
[1] = folding stability dG unfold from trypsin proteolysis; higher = more stable
Procedure: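 Folding stability of de novo designed mini-proteins (<80 aa, no Cys; designed by TrROS, TrMRF, ProteinMPNN and the joint model) was measured by cDNA display proteolysis with trypsin and chymotrypsin. Each protease was used at 11 concentrations in a threefold dilution series plus a no-protease condition. K50 was inferred by Bayesian fitting of sequencing counts, and dG unfold was derived against a sequence-predicted unfolded-state K50 (Tsuboyama et al. method). Sequences shown include variable-length N-terminal GS-type padding (SAGGSAGG...) inside a display construct carrying a PA tag. Rows were kept only if the AF2 dimer inter-PAE was >15, to exclude likely homo-oligomers.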

[2] = folding stability dG unfold (combined trypsin and chymotrypsin); higher = more stable
Procedure, shortened: (§1)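 Designed mini-proteins with no cysteine and under 80 residues were kept only if AlphaFold2 dimer inter-PAE was above 15. In a PA-tagged cDNA display construct, they were digested with trypsin and chymotrypsin and then sequenced. K50 was inferred by Bayesian fitting of counts, and unfolding free energy was derived per protease or combined against a sequence-predicted unfolded-state K50 and a shared folded-state K50.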

[3] = folding stability dG unfold from chymotrypsin proteolysis; higher = more stable
Procedure, shortened: as §1

| Sequence | folding stability dG unfold [1] [kcal/mol] | folding stability dG unfold [2] [kcal/mol] | folding stability dG unfold [3] [kcal/mol] |
| --- | --- | --- | --- |
| AAVIPTPTAEPVKVETLSTEVSPSLFPSPAAGGPRVLRTVVTTKTTVAVQTEDAWVEVETTTTTTEVLPPES [r1_112_JUSTAS] | -0.546 ± 0.21 | < -1 |  |
| MEFTITVEYDEETNELTVTITYPGYTIEIRIDPDGRIRVEVRMDPGMSEEERKRMQELAEELAKKLEEALKS [r1_468_TrROS_Hall] | 4.33 ± 0.69 | > 6 |  |
| SAGEELLREIAKKLNLPEGAEIVKVEIKVEEKDGRLRITITITVRNKETGELKTIEIEIEIELPEEEEESAG [r5_94_TrROS_Hall] | 3.9 ± 0.27 | 4.01 ± 0.43 |  |
| SAGGANLKIDIERHPGNGNINATIKFDGEEITVPATLSDIEEIIDEIIRVKPVPYYEKDGKLKPHWASAGGS [r8_332_TrROS] | -0.781 ± 0.19 | < -1 |  |
| SAGGAVTSVSPGNGTTTVTVPISVPGSPVTLNIPTPDATLTPDPSGTVTVTLPPNGTYSITITGPRSDSAGG [r19_227_JUSTAS] | -0.688 ± 0.16 | < -1 |  |
| SAGGDPGAEKIGTKTYPVGDKELTIETYRLPDPDELKVVVTDPTDGKTTPITVSLSEPPNIPVAELLSAGGS [r16_768_JUSTAS] | -0.276 ± 0.16 | < -1 |  |
| SAGGSAGGSAGGSMTRVFVRKPDYWLEVEEYPDPKNPDRIRLTVKKKIPLSEVTPEELASAGGSAGGSAGGS [r4_316_JUSTAS] | -0.0403 ± 0.26 |  |  |
| SAGGSAGGSPRYQIPFEFPNGRNLYIQIERDPEEGQVKVDIMFPDGGTKEITVPPGEEIKIPWSAGGSAGGS [r12_922_TrROS] | -0.659 ± 0.62 |  |  |
| SAGGTIKGLPVEEIKDEIRDLFPDHPMKVDIEPIDEDEGYVRVEIEPPRPNGKTQRQEHTIPIRPDDSAGGS [r16_564_TrROS] |  | -0.64 ± 0.58 | -0.579 ± 0.14 |
| SAGGYPAEIEASNVKPEELKKAIEDAPWAKELDVEVEDSSPDGSVKAKFKANSKAEVKRFEKAVKDAFSAGG [r13_580_TrMRF] |  | < -1 | -0.448 ± 0.34 |
| SAGKLVVPILLEFPPGATLEEAKEAVEEAVEKLKESFPNAPDIEIKLVDVKVFKTEDDRYLVLALIEVGSAG [r5_985_TrMRF] |  | 4.55 ± 0.43 | 4.51 ± 0.23 |
| SAGKSKTITLEIYNKETNIIIKIEIEINGDEVTIKVYAFNKDGKLIAKAEIKFNKKTKKLEIKIEIKKLSAG [r5_747_TrROS_Hall] |  | > 6 | 5.07 ± 0.33 |
| SAGLFDYLHKHNGLVRAALRRNGPPVVIPRLFRIEPDGDTYKLSVPDPDGVPQDWEVLDVEVFKPEDAISAG [r14_427_TrMRF] |  | -0.0844 ± 0.18 | 0.275 ± 0.19 |
| SAGMEVVEKIAKELGYENVKVESITPQVSPSGTTTLTITVKISKPGSTKTFTITASPEEIEEEIKKALSSAG [r5_549_JUSTAS] |  | 4.77 ± 0.23 | 4.72 ± 0.14 |
| SAGMKPGETRHIPIRPGMPPEEFIEEIEAEGPVKIWFPGRKREIDSPDDIEDNFRNFPEPMPIEVKVPSAGG [r19_95_TrROS] |  | 0.157 ± 0.28 | 0.695 ± 0.12 |
| SAGMLVRIETLPPGAATEEVVPMTPEEAKEYLEAQGYTVSTDPANPTMTFSHPDATVTVTFEPVPADLRSAG [r5_248_JUSTAS] |  | 0.365 ± 0.15 | 0.79 ± 0.12 |
| SAGMPLPVKLVSFEPGANTLTIDRPYTNGPVTLSPDGTLTITGTLRDENGKPLETFTETIPVNWPEGTRSAG [r5_475_JUSTAS] |  | -0.568 ± 0.17 | -0.24 ± 0.14 |
| SAGMSTTTTAEIKAAVEAAAGEGLNVAPPTVTATDGTPISDDTVIEPGAPVPVTVDVPIDPVPPPELRSAGG [r19_278_JUSTAS] |  | -0.0815 ± 0.28 | 0.336 ± 0.09 |
| SAGMTFEEEFVEEVDGGEMVKTKTLYEYDPSTNSITVLEEEVEKIPLPEVAPAPAPPEAMEERGAPGALSAG [r5_393_JUSTAS] |  | -0.115 ± 0.09 | 0.254 ± 0.093 |
| SAGMTHVLPVPELSPEEVRALAEALPEGEELVLLVPGPELLAELRAAGFPVDPARFRLATPEERAELLASAG [r5_354_JUSTAS] |  | -0.189 ± 0.12 | 0.857 ± 0.13 |
| SAGNMTNEQLQERIKEAVREDGWPTYRIKMSGPDGKNMNFQVDFPEERRQKIQKELGWDITEVEPRRYSAGG [r19_50_TrROS] |  | -0.578 ± 0.3 | -0.107 ± 0.38 |
| SAGSEVTLEITLTREVPSGKPVTLTETKTVPLAPSVPVEEVIKALKSPEWTAKVTLYTDGTPVTELTLDSAG [r5_278_JUSTAS] |  | 0.176 ± 0.069 | 0.604 ± 0.064 |
| SAGSVPQLIEDKLQEGSPNSSVEVKPVDTLGGTTVLEVKIERIDTSSGNGKLTSEDKIIEVPAGEELGSAGG [r19_8_JUSTAS] |  | 0.0158 ± 0.086 | 0.467 ± 0.049 |
| SAGTVTSSTTPLPDGSLLSTTTTTSPVSGTSVTTSTTTTTPVTPTTPPPPPRPVYPRYYDGVTEPALSLSAG [r5_169_JUSTAS] |  | -0.639 ± 0.18 | -0.12 ± 0.068 |

| Sequence | folding stability dG unfold [1] [kcal/mol] | folding stability dG unfold [2] [kcal/mol] | folding stability dG unfold [3] [kcal/mol] |
| --- | --- | --- | --- |
| SAKKHIPIPMDDPENLKKAIEEALENAENGKKVEIPIRSPDGPVWIEVDPKKKDIKIRNPGNGEERKIKSAG [r14_423_TrROS] |  | -0.0974 ± 0.53 | 0.228 ± 0.084 |
| SAMIEVYRPPDRALVKLPSGKVEILDDPEAFEARVRAESDLPIRVTPLSPESPEFKALLEEIEKKLKGKSAG [r14_235_JUSTAS] |  | 0.0988 ± 0.31 | 0.192 ± 0.18 |
| SAMLTLPVESTDPARVEAAIAEARALAAQGARVEVPVRTPEGPLRFLVDPATGRVVRTDPATGATEVLPSAG [r14_423_JUSTAS] |  | -0.244 ± 0.13 | 0.161 ± 0.17 |
| SAMTISVSETPDTGSLTVPMTLEPDTVEEVVEEVAKEIAPEEAEVSIEVTEVVPHPDSVTVTAKITVRPSAG [r14_345_JUSTAS] |  | -0.0666 ± 0.085 | 0.361 ± 0.041 |
| SAMTTTTTTTDPASGRTVVTTTTPLPDGSVVTTEVDLSNPVRTTTTHPLTDGTPAPTTTTTALPADATLSAG [r14_64_JUSTAS] |  | -0.345 ± 0.12 | 0.0551 ± 0.046 |
| SAMVPLEEAAKRVAEELGLEYTEITKIVPGTGELIVEFPGKKLTVTQDPATGSTTVEETFYDPETGVKKSAG [r14_270_JUSTAS] |  | < -1 | -1.35 ± 0.28 |
| SAPMTPAERARPRIKKLVNLLAEDGNFKVDIERDPGDPGVVVTIKLDPNSREKFAERLGIPRDELYDLISAG [r14_688_TrROS] |  | -0.373 ± 0.41 | -0.0457 ± 0.23 |
| SATKTINFDEFNDMMNQGDPPMLRHIIKEAREKDPDKEITIRMPKNPMFRDYIKEAFKEEGYPVKITPHSAG [r14_236_TrROS] |  | < -1 | -0.494 ± 0.36 |
| SAVTFPVPVTVTVPDADGGPPAVTVPVAVPVDPDAVRDAAIERLRRELAEAGRPDVTEEDLARPEFLAARSA [r9_263_TrMRF] |  | -0.335 ± 0.23 | 0.622 ± 0.16 |
| SDPLGTPVPLTYRVLLTFPGVSRPFLGPGGVVRSVSVNPTVLVPGPANSYPAVRELAEPLGLSVSVTPLASA [r9_1209_TrMRF] |  | -0.871 ± 0.23 | -0.289 ± 0.21 |
| SGMEEIKIEVLSTETDESGTTYTETKIVLPDGKVIEATMTTTTVPDAAGNPVAVETLTLKDKTYTRTIPLSA [r9_271_JUSTAS] |  | 0.101 ± 0.17 | 0.448 ± 0.12 |
| SKPMPADELMEQHPNMIMIRTPNDKHIFINPEENEIFRFNPDEGRVYWIPGTLEEIEELVPDNGFEIWPFSA [r9_721_TrROS] |  | 0.286 ± 0.22 | 0.536 ± 0.21 |
| SMEEKEEVLSVEVDPVGEVVVTRTLVKKSAVDPTNPNNPVPLSLEEIVEPVPLPPPVPLPVPGNPRFEAASA [r9_357_JUSTAS] |  | 0.154 ± 0.081 | 0.77 ± 0.072 |
| SMEPPVPKIKARLVEVREEGERPRALFEIEEIEDAPPEIEELFKRGAKIEVEIPPDYPLKEDEEIEVDPLSA [r9_557_TrMRF] |  | 0.0252 ± 0.28 | 0.622 ± 0.15 |
| SMNVTEEVTVEELPSGEVLTETVVTEPSGVTTVTTTLASPPDRPVVETRTTTYPPDGSSTETSTVAPLPGSA [r9_1179_JUSTAS] |  | 0.00729 ± 0.23 | 0.507 ± 0.054 |
| SMVIPSSLGFEPALERVRALLPPERRYVVTELDPATGETTTATYDPATGTVTTTATPSAAGPPYVVVEVVSA [r9_1059_JUSTAS] |  | -0.251 ± 0.086 | 0.345 ± 0.064 |
| SPKPFEMSIQIPGITPQALEKAVELARKDGWVENEIEPDPENNNVQIDVEMRGTPEKMHRAQNAIQEAIKSA [r9_652_TrROS] |  | -0.386 ± 0.21 | 0.197 ± 0.18 |
| SPPVLYEITITFTYSDGTTVTKTINATVPRSQIDALIQKIIEEPGNKPYTKVTFNIYDKSTGTWTTITIDSA [r9_97_JUSTAS] |  | 5.66 ± 0.23 | 5.76 ± 0.18 |
| SSMVVINFPDTKKATPETLRKEIEPVAAPGKPVLVTVYPPTGVVLKTATVEPDKVEEVDPSHPYIVEIVASA [r9_264_JUSTAS] |  | -0.558 ± 0.16 | -0.377 ± 0.24 |
| SSTTTTTTDPSGYTYSTTVTTHPDSTTTTTGRVTVEKVGDRPVARTTTTTTTVSPGGATTTTTSTTTTLPSA [r9_69_JUSTAS] |  | 0.0549 ± 0.082 | 0.589 ± 0.1 |
| SSVTLLVPVEVTLPTPEGKGPSVTRFVPVPVPEEELRERLIEELREELKKKGEPDVTEEELKDPEVLEELSA [r9_263_JUSTAS] |  | -0.0887 ± 0.18 | 0.51 ± 0.046 |
| STITDVEIYKMPPGEEYPFPNGRKIPPGDYMIYNEDNGHYMSADQIRRILQEIEQELEKLPPPKKPENDKSA [r9_517_TrROS] |  | -0.162 ± 0.43 | 0.251 ± 0.29 |
| VNPRTLTYDPVTNRIDAATPDGTPVTVTAGSSGYTATVTDPATGAPTVVPLTEAELAALEADPAFPLATSNS [r1_18_JUSTAS] |  | -0.115 ± 0.056 | 0.653 ± 0.057 |
